Reference: paper PMC10368638, “Differential CaKAN3-CaHSF8 associations underlie distinct immune and heat responses under high temperature and high humidity conditions”

B1: 3x AACAAm probe (3xAAAAA) (dsDNA)
DNA 1: AAAAAAAAAAAAAAA
DNA 2: TTTTTTTTTTTTTTT
B2: 3x AACAA probe (dsDNA)
DNA 1: AACAAAACAAAACAA
DNA 2: TTGTTTTGTTTTGTT

Biological target: CaKAN3-GST (Capsicum annuum? (pepper), UniProt A0A2G2Z1N1 1-250)
Assay: EMSA; EMSA: 20 uL; 5x binding buffer printed as 1 M Tris-HCl pH 7.5, 5 M NaCl, 1 M KCl, 1 M MgCl2, 0.5 M EDTA pH 8.0, 10 mg/mL BSA (apparently stock concentrations)
Settings: protein: recombinant; tags: GST (pDEST-15); label: Cy5; blunt

Chain of CaKAN3-GST (A0A2G2Z1N1 entry or part of it): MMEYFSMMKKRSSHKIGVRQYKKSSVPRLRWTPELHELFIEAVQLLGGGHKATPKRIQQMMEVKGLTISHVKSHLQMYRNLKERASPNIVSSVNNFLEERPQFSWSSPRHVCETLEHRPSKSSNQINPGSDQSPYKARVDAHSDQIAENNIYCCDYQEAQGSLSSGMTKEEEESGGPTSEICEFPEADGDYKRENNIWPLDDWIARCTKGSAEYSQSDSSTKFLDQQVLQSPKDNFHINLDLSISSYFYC

| Binder | binding result |
| --- | --- |
| B1 | no binding |
| B2 | binds |
